To fix the notation:
B1: Flag-PAPα (canonical poly(A) polymerase) (enzyme)
chain: MPFPVTTQGSQQTQPPQKHYGITSPISLAAPKETDCVLTQKLIETLKPFGVFEEEEELQRRILILGKLNNLVKEWIREISESKNLPQSVIENVGGKIFTFGSYRLGVHTKGADIDALCVAPRHVDRSDFFTSFYDKLKLQEEVKDLRAVEEAFVPVIKLCFDGIEIDILFARLALQTIPEDLDLRDDSLLKNLDIRCIRSLNGCRVTDEILHLVPNIDNFRLTLRAIKLWAKRHNIYSNILGFLGGVSWAMLVARTCQLYPNAIASTLVHKFFLVFSKWEWPNPVLLKQPEECNLNLPVWDPRVNPSDRYHLMPIITPAYPQQNSTYNVSVSTRMVMVEEFKQGLAITDEILLSKAEWSKLFEAPNFFQKYKHYIVLLASAPTEKQRLEWVGLVESKIRILVGSLEKNEFITLAHVNPQSFPAPKENPDKEEFRTMWVIGLVFKKTENSENLSVDLTYDIQSFTDTVYRQAINSKMFEVDMKIAAMHVKRKQLHQLLPNHVLQKKKKHSTEGVKLTALNDSSLDLSMDSDNSMSVPSPTSATKTSPLNSSGSSQGRNSPAPAVTAASVTNIQATEVSVPQVNSSESSGGTSSESIPQTATQPAISPPPKPTVSRVVSSTRLVNPPPRSSGNAATSGNAATKIPTPIVGVKRTSSPHKEESPKKTKTEEDETSEDANCLALSGHDKTEAKEQLDTETSTTQSETIQTAASLLASQKTSSTDLSDIPALPANPIPVIKNSIKLRLNR
notes: not shown: FLAG tag

Assay [1] concerns the target T1, CPSF-100 (Cleavage and Polyadenylation Specificity Factor subunit 100) (human, UniProt Q9P2I0 1-782).
T1 construct: also called SPSF-100
T1 sequence (looked up): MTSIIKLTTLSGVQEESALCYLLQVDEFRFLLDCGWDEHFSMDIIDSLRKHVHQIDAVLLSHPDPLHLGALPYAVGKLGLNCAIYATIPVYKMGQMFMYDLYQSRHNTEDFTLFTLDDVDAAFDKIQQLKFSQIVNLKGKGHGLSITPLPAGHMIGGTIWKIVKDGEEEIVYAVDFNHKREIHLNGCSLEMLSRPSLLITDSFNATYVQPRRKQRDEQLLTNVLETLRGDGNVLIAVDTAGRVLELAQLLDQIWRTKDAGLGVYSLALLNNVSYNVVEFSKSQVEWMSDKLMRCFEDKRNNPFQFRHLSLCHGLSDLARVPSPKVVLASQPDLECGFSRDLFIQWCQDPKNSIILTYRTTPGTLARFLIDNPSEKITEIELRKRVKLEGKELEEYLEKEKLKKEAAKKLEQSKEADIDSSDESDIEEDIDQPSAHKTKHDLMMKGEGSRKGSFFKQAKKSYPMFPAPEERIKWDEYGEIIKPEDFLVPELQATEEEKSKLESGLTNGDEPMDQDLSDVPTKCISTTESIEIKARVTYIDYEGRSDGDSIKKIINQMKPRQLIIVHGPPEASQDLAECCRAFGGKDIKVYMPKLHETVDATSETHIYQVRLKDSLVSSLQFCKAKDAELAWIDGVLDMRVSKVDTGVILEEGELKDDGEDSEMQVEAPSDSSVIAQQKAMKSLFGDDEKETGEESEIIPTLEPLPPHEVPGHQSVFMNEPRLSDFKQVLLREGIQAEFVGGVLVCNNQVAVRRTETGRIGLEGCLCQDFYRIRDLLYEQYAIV
The experiment in a line: FLAG affinity purification from HEK 293 cells, western blot. The protocol:
(§1) Affinity purification of Flag-Star-PAP and Flag-PAPα and their associated complex of proteins in parallel allowed a comparison of the complexes formed by Star-PAP and PAPα in more detail. Flag tagged Star-PAP and PAPα were purified from HEK 293 cells stably expressing Flag-Star-PAP or Flag-PAPα (following manufacturer's instructions; Sigma-Aldrich) and the presence of endogenous symplekin, CPSF¹⁰⁰, CPSF⁷³, CstF⁶⁴, RNA Pol II, Sm protein (Y12) and PIPKIα was assessed by western blotting. Like Flag-PAPα, Flag-Star-PAP associates with symplekin, CPSF¹⁰⁰ and CPSF⁷³, further confirmation that Star-PAP may function in an mRNA polyadenylation complex (FIG. 7). Also detected with both PAPs was a faster migrating form of RNA Pol II and Sm protein (Y-12), a component of the spliceosome, which is consistent with reports that the machinery for splicing and polyadenylation are coupled.
(Immunoblotting shows a protein as a band on a membrane.)

The next assay addresses T2, Symplekin (human, UniProt Q92797 1-1274).
T2 sequence (looked up): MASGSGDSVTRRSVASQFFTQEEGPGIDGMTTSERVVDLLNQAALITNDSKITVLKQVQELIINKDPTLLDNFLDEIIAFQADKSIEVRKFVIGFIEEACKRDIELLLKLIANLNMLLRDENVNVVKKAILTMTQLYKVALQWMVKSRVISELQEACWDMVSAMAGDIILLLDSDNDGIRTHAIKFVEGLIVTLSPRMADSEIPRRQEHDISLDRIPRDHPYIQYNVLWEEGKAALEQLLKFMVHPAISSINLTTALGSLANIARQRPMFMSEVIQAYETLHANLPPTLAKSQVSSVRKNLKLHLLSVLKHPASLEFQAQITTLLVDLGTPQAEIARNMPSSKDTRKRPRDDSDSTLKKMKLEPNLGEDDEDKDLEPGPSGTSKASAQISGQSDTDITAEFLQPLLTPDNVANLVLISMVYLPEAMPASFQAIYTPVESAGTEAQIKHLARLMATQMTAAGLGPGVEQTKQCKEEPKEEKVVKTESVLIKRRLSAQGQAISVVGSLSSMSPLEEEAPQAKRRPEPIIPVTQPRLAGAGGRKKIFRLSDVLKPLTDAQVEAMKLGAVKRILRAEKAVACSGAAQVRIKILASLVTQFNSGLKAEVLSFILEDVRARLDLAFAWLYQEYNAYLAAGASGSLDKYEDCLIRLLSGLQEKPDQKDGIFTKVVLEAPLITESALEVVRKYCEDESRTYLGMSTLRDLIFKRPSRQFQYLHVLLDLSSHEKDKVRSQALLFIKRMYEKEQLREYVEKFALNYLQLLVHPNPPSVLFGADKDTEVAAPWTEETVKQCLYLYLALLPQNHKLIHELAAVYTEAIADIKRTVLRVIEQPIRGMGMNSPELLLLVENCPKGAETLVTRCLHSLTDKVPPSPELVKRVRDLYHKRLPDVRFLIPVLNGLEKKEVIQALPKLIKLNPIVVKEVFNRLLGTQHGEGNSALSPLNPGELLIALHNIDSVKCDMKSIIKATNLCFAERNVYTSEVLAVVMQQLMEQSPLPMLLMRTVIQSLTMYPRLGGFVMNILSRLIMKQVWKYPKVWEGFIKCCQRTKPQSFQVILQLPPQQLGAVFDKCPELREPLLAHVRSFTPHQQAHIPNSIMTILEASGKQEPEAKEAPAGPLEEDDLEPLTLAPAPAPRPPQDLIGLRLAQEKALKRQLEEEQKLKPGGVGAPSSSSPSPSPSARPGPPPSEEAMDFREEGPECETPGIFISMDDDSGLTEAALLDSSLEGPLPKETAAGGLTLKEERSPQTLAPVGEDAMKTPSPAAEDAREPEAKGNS
Described as above. The protocol: as §1

Assay [2] addresses B1. Nature of the assay: FLAG affinity purification from HEK 293 cells, immunoblot with a CKIα specific antibody. On the procedure: (A) FLAG purified Star-PAP and PAPα complexes were separated by SDS-PAGE, transferred to nitrocellulose and probed with anti-FLAG and -CKIα antibodies. (B) Endogeneous Star-PAP was immunoprecipitated from HEK 293 cells. The resulting precipitates were immunoblotted with Star-PAP and CKIα specific antibodies. A non-specific IgG immunoprecipitation was used as a control. (C) Purified FLAG-Star-PAP complex was incubated with 0, 0.1, 1.0, or 100 μM IC261 (IC₅₀ 11 μM). (D) Purified FLAG-Star-PAP complex was incubated with […] (IC₅₀˜6.0 μM) prior to initiation of the kinase reaction by ATP. Arrow indicates Star-PAP protein.
Casein Kinase Iα (CKIα), is a protein kinase found in nuclear speckles; moreover, CKIα activity is inhibited by PI4,5P₂. […] FLAG proteins were expressed and purified as follows. Human Star-PAP and rat CKIα cDNAs were cloned in to the pFLAG-1 mammalian expression vector (Sigma). For each FLAG purification, four 10 cm dishes each containing ˜5×10^6 HEK 293 cells were transfected with 10 μg DNA and allowed to express for 48 hours. FLAG purifications were performed according to the manufacturer's directions.

For assay [3], the target named is T3, Flag-Star-PAP (full length) (human, UniProt Q9H6E5 1-874).
T3 construct: Expressed in HEK 293 cells and purified on anti-FLAG M2 resin together with its associated complex; also called Flag tagged Star-PAP; full-length Star-PAP; not shown: FLAG tag
T3 sequence: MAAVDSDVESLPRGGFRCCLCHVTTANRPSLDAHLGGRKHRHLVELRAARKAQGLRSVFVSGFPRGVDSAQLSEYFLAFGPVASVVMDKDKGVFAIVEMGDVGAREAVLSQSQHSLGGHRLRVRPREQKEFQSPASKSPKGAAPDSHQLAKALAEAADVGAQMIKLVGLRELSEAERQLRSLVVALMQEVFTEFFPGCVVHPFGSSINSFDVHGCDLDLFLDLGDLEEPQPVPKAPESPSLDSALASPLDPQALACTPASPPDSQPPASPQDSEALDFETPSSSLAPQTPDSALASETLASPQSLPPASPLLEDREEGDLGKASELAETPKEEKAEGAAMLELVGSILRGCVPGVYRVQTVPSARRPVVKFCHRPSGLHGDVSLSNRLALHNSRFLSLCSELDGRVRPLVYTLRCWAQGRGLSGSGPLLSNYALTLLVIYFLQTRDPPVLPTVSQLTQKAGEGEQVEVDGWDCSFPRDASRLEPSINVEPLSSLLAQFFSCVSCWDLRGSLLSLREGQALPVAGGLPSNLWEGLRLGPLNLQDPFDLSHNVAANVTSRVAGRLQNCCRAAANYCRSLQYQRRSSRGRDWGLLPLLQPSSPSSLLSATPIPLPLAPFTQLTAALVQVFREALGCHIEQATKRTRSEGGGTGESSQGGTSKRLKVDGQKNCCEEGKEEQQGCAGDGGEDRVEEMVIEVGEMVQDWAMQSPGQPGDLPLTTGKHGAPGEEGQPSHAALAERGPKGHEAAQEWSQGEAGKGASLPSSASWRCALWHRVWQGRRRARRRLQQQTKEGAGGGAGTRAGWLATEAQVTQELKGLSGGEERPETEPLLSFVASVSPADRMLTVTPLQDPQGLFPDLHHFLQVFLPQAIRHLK
The experiment in a line: FLAG affinity purification from HEK 293 cells, western blot. The protocol: as §1

Assay [4] has as its target B1. The assay is described as above. On the procedure: as §1
The next assay deals with T4, endogenous Star-PAP (human, UniProt Q9H6E5 1-874).
T4 sequence: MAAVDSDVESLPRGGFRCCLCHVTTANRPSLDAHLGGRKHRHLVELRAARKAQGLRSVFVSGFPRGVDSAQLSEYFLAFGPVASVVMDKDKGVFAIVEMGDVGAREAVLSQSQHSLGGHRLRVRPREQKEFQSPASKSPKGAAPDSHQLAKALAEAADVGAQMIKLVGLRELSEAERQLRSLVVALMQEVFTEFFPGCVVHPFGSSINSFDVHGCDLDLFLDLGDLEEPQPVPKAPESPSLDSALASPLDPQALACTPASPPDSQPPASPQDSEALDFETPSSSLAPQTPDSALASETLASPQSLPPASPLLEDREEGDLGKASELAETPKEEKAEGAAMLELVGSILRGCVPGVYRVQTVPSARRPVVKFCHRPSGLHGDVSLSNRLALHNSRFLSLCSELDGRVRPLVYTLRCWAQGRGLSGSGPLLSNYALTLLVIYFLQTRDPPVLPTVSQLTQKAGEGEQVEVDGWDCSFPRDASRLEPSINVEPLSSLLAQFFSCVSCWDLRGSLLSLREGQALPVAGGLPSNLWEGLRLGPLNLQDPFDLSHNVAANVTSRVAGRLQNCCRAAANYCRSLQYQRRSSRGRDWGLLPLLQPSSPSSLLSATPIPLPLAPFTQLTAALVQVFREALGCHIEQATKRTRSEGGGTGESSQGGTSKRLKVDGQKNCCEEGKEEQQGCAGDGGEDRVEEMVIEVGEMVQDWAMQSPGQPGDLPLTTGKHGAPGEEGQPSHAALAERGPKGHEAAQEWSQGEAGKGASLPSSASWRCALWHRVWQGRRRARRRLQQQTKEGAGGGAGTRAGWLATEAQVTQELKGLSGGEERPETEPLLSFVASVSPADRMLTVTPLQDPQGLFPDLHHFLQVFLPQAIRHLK
The experiment in a line: co-immunoprecipitation with antibodies against full-length Star-PAP, western blot.

For the molecule B1, the binding result (in assay [1]; with Symplekin) was “binds” each time.

B2: Casein Kinase Iα (CKIα), endogenous (enzyme, human, UniProt P48729 2-337, looked up)
chain: ASSSGSKAEFIVGGKYKLVRKIGSGSFGDIYLAINITNGEEVAVKLESQKARHPQLLYESKLYKILQGGVGIPHIRWYGQEKDYNVLVMDLLGPSLEDLFNFCSRRFTMKTVLMLADQMISRIEYVHTKNFIHRDIKPDNFLMGIGRHCNKLFLIDFGLAKKYRDNRTRQHIPYREDKNLTGTARYASINAHLGIEQSRRDDMESLGYVLMYFNRTSLPWQGLKAATKKQKYEKISEKKMSTPVEVLCKGFPAEFAMYLNYCRGLRFEEAPDYMYLRQLFRILFRTLNHQYDYTFDWTMLKQKAAQQAASSSGQGQQAQTPTGKQTDKTKSNMKGF
notes: Detected with a CKIα specific antibody; also called CIKIα
For the molecule B2, the binding result in assay [2] was “no binding”.

B3: PIPKIα (endogenous) (enzyme, human, UniProt Q99755 1-562, looked up)
chain: MASASSGPSSSVGFSSFDPAVPSCTLSSAASGIKRPMASEVLEARQDSYISLVPYASGMPIKKIGHRSVDSSGETTYKKTTSSALKGAIQLGITHTVGSLSTKPERDVLMQDFYVVESIFFPSEGSNLTPAHHYNDFRFKTYAPVAFRYFRELFGIRPDDYLYSLCSEPLIELCSSGASGSLFYVSSDDEFIIKTVQHKEAEFLQKLLPGYYMNLNQNPRTLLPKFYGLYCVQAGGKNIRIVVMNNLLPRSVKMHIKYDLKGSTYKRRASQKEREKPLPTFKDLDFLQDIPDGLFLDADMYNALCKTLQRDCLVLQSFKIMDYSLLMSIHNIDHAQREPLSSETQYSVDTRRPAPQKALYSTAMESIQGEARRGGTMETDDHMGGIPARNSKGERLLLYIGIIDILQSYRFVKKLEHSWKALVHDGDTVSVHRPGFYAERFQRFMCNTVFKKIPLKPSPSKKFRSGSSFSRRAGSSGNSCITYQPSVSGEHKAQVTTKAEVEPGVHLGRPDVLPQTPPLEEISEGSPIPDPSFSPLVGETLQMLTTSTTLEKLEVAESEFTH
notes: Detected by western blot in immunoprecipitates and FLAG-purified complexes; also called type I phosphatidylinositol phosphate kinase alpha; PIP kinase
Consider B3, for which the binding result in assay [3] was “binds”; in assay [4], “no binding”; with endogenous Star-PAP, “binds”.

(Values after patent US20090263375A1 (WISCONSIN ALUMNI RESEARCH FOUNDATION, published 2009).)
